Data taken from patent US6632621B1, “G protein-coupled receptor-like receptors and modulators thereof” (priority 1999, dated 2003).
Where no end group is shown, it is not given here. [ ]: non-standard residue; d: D form. Tyr(3-I) = N[C@@H](Cc1ccc(O)c(I)c1)C(=O)O

What was measured:
[1] = biological target: T1, CEGPCR3 receptor (Caenorhabditis elegans, UniProt P90745); experiment: [35S]GTPγS binding assay, membranes of CHO cells transiently transfected with CEGPCR3; assay type: biochemical, C. elegans
T1 sequence (P90745 1-376): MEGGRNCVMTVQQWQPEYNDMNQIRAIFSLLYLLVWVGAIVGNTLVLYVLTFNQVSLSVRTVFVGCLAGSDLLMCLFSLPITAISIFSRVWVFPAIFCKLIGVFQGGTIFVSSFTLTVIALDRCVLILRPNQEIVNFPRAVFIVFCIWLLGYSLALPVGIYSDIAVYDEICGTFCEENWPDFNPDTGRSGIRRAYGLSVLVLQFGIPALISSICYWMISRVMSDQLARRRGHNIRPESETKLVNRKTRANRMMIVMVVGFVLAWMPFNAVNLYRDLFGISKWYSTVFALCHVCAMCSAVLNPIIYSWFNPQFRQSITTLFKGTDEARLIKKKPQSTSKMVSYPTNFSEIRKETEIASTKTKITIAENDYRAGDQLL
Protocol: (§1) Recombinant pCR3.1 clones encoding invertebrate GPCR-like receptors were transformed into wild-type CHO-K1 cells and functional expression was achieved using a temperature-shift incubation protocol. The CHO-K1 cells were cultured at 37° C. in a humidified atmosphere of 5% CO2 in air in DMEM medium supplemented with 10% heat-inactivated fetal bovine serum (i.e., FBS), 10 μg/ml gentamicin, and 0.1 mM nonessential amino acids to give complete DMEM medium. Additionally, for incubations at temperatures lower than 37° C., the medium was fortified with 10 mM HEPES (pH 7.4). Cells were transfected with recombinant pCR3.1 clones containing GPCR-like receptor DNAs, using LipofectAMINE PLUS™, essentially according to the manufacturer's instructions. […] In separate plastic tubes, PLUS (20 μl/plate; Life Technologies) was added to 0.75 ml/plate of recombinant plasmid DNA in OptiMEM (5 μg/plate; Gibco/BRL—Life Technologies), mixed and incubated at room temperature for 15 minutes. Separately, LipofectAMINE (30 μl/plate) was mixed with 0.75 ml OptiMEM and added to the pre-complexed DNA/PLUS mixture and incubated at room temperature for 15 minutes. The culture medium was then replaced with serum-free transfection medium (DMEM, 5 ml/plate). The DNA-PLUS-LipofectAMINE complex was then added to the plates (1.5 ml/plate) and mixed gently into the medium, followed by a 3 hour incubation at 37° C. in 5% CO2. At this time, the medium was supplemented with complete DMEM medium containing 20% FBS (6.5 ml/plate) and incubation was continued at 37° C. in 5% CO2. After a total of 24 hours at 37° C. in 5% CO2, the medium was replaced with complete DMEM medium fortified with 10 mM HEPES (10 ml/plate) and the cells were moved to an incubator maintained at 28-30° C. in a humidified atmosphere of 5% CO2 in air. The incubation continued for an additional 24 hours, typically at the lower temperature indicated above. A plasmid encoding Green Fluorescent Protein (i.e., GFP, 4 μg/plate) was used for transient GFP expression in CHO-K1 cells to estimate the transfection yields under the same conditions as used for GPCR-like receptor polynucleotides.
(§2) To assess expression, membranes were prepared from transfected CHO-K1 cells. Transfected cells were washed once with ice-cold Dulbecco's phosphate-buffered saline (i.e., PBS), 5 ml per 10 cm plate, and the cells were scraped into 5 ml of the same buffer. Cell suspensions from multiple plates were combined and centrifuged at 500×g for 10 minutes at 4° C. The cell pellet was reconstituted in ice-cold TEE (25 mM Tris, pH 7.4, 5 mM EGTA, 5 mM EDTA). Convenient aliquots were snap-frozen in liquid nitrogen and stored at −70° C. After thawing, the cells were homogenized and centrifuged at 500×g for 5 minutes at 4° C. to pellet nuclei and unbroken cells. Tile supernatant was centrifuged at 47,000×g for 30 minutes at 4° C. The membrane pellet was washed once with TEE, resuspended in 20 mM HEPES, pH 7.4, 100 mM NaCl, 10 mM MgCl2, 1 mM EDTA (assay buffer), distributed into aliquots of 0.5-1.0 ml, and frozen in liquid nitrogen. Membrane aliquots were stored at −70° C. Membrane protein concentration was determined using the BCA Protein Assay Reagent from Pierce (Rockford, Ill.), with bovine serum albumin (i.e., BSA) as a standard.
(§3) Aliquots of cell membranes prepared as described above and stored at −70° C. were thawed, homogenized, and diluted into buffer containing 20 mM HEPES, pH 7.4, 10 mM MgCl2, 1 mM EDTA, and 100 mM NaCl at a concentration of 10-50 μg/ml. Reaction mixtures were prepared in 96-well polypropylene plate, Nunc. Twenty microliters of a 10× putative modulator compound (including but not limited to potential peptide ligands) solution or a water control (20 μl), 18.2 µM GDP (0.11 ml, 10 μM final concentration), and a membrane preparation were mixed and placed on ice. The modulator/ligand-GDP-membrane mixtures were incubated for 20 minutes at room temperature on a shaking platform and then placed on ice.

[2] = biological target: T2, CEGPCR12h receptor (Caenorhabditis elegans, UniProt Q20275); experiment: [35S]GTPγS binding assay, CEGPCR12h expressed in CHO cells; assay type: biochemical, C. elegans; settings: Table 11; one range for the group; results apply to all CEGPCR12 isoforms; read-out: EC50 range
T2 sequence (Q20275 1-402): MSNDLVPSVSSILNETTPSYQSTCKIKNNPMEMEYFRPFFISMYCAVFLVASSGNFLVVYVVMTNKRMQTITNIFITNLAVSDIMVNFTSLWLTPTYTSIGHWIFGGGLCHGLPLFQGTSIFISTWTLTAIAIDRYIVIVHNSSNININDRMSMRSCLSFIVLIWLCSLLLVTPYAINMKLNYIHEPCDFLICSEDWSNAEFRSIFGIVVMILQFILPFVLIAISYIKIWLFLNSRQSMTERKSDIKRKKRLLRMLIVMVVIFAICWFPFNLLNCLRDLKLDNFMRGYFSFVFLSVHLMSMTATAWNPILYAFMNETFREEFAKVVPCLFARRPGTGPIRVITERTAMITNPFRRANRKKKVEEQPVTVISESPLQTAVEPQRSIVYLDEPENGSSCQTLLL
Protocol: as §1, §2, §3

[3] = biological target: T3, CEGPCR5 (Caenorhabditis elegans, UniProt Q18179); experiment: [35S]GTPγS binding assay, CEGPCR5 expressed in CHO cells; assay type: biochemical, C. elegans
T3 sequence (Q18179 1-402): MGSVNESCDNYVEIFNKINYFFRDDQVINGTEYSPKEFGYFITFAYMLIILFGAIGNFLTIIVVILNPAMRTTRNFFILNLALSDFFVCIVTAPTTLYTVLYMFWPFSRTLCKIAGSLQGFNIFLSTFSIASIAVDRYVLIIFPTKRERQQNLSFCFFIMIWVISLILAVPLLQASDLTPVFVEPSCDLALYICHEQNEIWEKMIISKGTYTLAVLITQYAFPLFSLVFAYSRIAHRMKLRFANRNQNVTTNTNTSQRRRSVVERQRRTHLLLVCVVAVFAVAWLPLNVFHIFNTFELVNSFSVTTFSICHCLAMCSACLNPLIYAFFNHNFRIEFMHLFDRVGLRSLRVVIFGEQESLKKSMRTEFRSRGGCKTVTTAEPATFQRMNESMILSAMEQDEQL
Protocol: as §1, §2, §3

[4] = biological target: T4, CEGPCR4 (C. elegans); experiment: competition binding assay, CEGPCR4/CHO membranes; IC50 range printed once for block r9-r18
T4 construct: Expressed in CHO cells; also called CEGPCR4 receptor; CEGPCR4/CHO membranes
T4 chain: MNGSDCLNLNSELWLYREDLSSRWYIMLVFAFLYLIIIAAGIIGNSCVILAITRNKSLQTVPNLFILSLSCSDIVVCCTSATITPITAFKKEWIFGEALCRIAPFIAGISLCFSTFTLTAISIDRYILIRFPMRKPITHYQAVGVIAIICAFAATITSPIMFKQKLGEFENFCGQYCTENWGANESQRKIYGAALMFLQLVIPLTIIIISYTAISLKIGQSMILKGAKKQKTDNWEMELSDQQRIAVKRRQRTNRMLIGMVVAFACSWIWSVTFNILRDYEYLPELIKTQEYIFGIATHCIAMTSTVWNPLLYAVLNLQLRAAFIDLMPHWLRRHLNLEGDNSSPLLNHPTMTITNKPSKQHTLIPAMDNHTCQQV

[5] = biological target: T4, CEGPCR4; experiment: competition binding assay, CEGPCR4/CHO membranes; IC50 range printed once for block r26-r35
[6] = biological target: T4, CEGPCR4; experiment: competition binding assay, CEGPCR4/CHO membranes; IC50 range printed once for block r39-r54
[7] = EC50, single values, GTPγS assay
[8] = EC50 range, Table 7, one range for the group of peptides, cells 24 h 37° C. then 24 h 28° C.

GPSGPLRF-NH2 [GPSGPLRF-NH2]
EC50 [1, 7]: 422 nM
EC50 [1, 8]: 150 to 400 nM

GGPQGPLRF-NH2 [GGPQGPLRF-NH2]
EC50 [1, 7]: 152 nM
EC50 [1, 8]: 150 to 400 nM
EC50 [2]: 1500 to 3000 nM

GNSFLRF-NH2 [GNSFLRF-NH2]
EC50 [1, 7]: 7900 nM
EC50 ([1]; EC50 range, Table 7, cells 24 h 37° C. then 24 h 28° C.): ~8000 nM
receptor activation by matched ligand ([1]; membranes from cells transfected and maintained at 37° C.): not detectably activated
potency lower than that of the two C. elegans flp15 peptides ([1]; ratio of EC50 values): 19-52 fold
ligand-induced [35S]GTPγS binding ([1]; temperature shift to 28° C. 24 hours after transfection): significant stimulation
EC50 [3]: 80 to 800 nM

EIPGVLRF-NH2 (flp18) [EIPGVLRF-NH2]
binding result [4]: binds

ASPSFIRF-NH2 (flp4) [ASPSFIRF-NH2]
binding result [4]: binds

SPLGTMRF-NH2 (flp3) [SPLGTMRF-NH2]
binding result [5]: binds

SDNFMRF-NH2 [SDNFMRF-NH2]
binding result [5]: binds

PDNFMRF-NH2 [PDNFMRF-NH2]
binding result [5]: binds

SAEPFGTMRF-NH2 (not fully specified; printed as SAEPFGTMRF-NH2, flp3) [SAEPFGTMRF-NH2]
binding result [5]: binds

GGPQGPLRF-NH2 (flp15) [GGPQGPLRF-NH2]
binding result [5]: binds

EIVFHQISPIFFRF-NH2 (flp14 as printed) [EIVFHQISPIFFRF-NH2]
binding result [5]: binds

TNRNFLRF-NH2 [TNRNFLRF-NH2 (Lobster peptide II)]
binding result [5]: binds

B1: NGAPQPFVRF-NH2 (peptide)
peptide: NGAPQPFVRF-NH2
notes: flp11 (species cell stands one row higher, r34c4)
binding result [5]: binds

DVPGVLRF-NH2 (flp18) [DVPGVLRF-NH2]
binding result [6]: binds

SVPGVLRF-NH2 (flp18) [SVPGVLRF-NH2]
binding result [4]: binds

YVPGVLRF-NH2 (synthetic) [Y-VPGVLRF-NH2]
binding result [6]: binds

YDVPGVLRF-NH2 (synthetic) [Y-DVPGVLRF-NH2]
binding result [6]: binds

B2: 3-Iodo-Y-VPGVLRF-NH2 (peptide)
peptide: [Tyr(3-I)]VPGVLRF-NH2
modifications: N-terminus assumed
SMILES: CC(C)C[C@H](NC(=O)[C@@H](NC(=O)CNC(=O)[C@@H]1CCCN1C(=O)[C@@H](NC(=O)[C@@H](N)Cc1ccc(O)c(I)c1)C(C)C)C(C)C)C(=O)N[C@@H](CCCNC(=N)N)C(=O)N[C@@H](Cc1ccccc1)C(N)=O
notes: synthetic
binding result [6]: binds

B3: 3-Iodo-Y-GVLRF-NH2 (peptide)
peptide: [Tyr(3-I)]GVLRF-NH2
modifications: N-terminus assumed
SMILES: CC(C)C[C@H](NC(=O)[C@@H](NC(=O)CNC(=O)[C@@H](N)Cc1ccc(O)c(I)c1)C(C)C)C(=O)N[C@@H](CCCNC(=N)N)C(=O)N[C@@H](Cc1ccccc1)C(N)=O
notes: synthetic
binding result [6]: binds

KSVPGVLRF-NH2 (flp18) [KSVPGVLRF-NH2]
binding result [4]: binds

SEVPGVLRF-NH2 (flp18) [SEVPGVLRF-NH2]
binding result [4]: binds

DFDGAMPGVLRF-NH2 (flp18) [DFDGAMPGVLRF-NH2]
binding result [4]: binds
